Assay: soluble on expression in E. coli; label from the status in PepcDB or PDB records

Soluble on expression in E. coli, not soluble:
MGSDKIHHHHHHMKLQDFLGKDEKWSFDAIAEDADLARQIQIVLIGLVLLEPPADGKFGPVSVIALKKFQELTKTEESGFLGAVTAKKLIETKIDDLPKPPLKLGNDIASKIVKYMIAKGYQVFTNPKEYNIVYIEGMNGDWTLNSDTPNQFNDRRIVIEVVNGIPKIVDHWEATTEPGKYYTYNPMNPKGAARIQFGQYKAWAVGTHGTAEPHEALVQVGDITVCRDFNQDFKRTGDKLDTGDNFYVNQHYGFDFPQNDIRLASAGCLVGRTREGHREFMAIVKQDRRYVANRKYTFYTTVIPGDDLLKTFPG
MGSDKIHHHHHHMKLQQLEYFMAVSKYASFTLASQKLHTSQPYLSTQLKELERELGASLILRDKKHCRLSPAGEVVAKRTEMIFALIKEAQEEINELVTQGSTTTIRIGTNLIDIDKAFGEVLLLFNQSYPYVSIDFKYYYDLETALETDLIDIGIGIFLDTSIPLEKELIYTESYLLCVNKNHPLAHADSVTIDEIRSLPFAAYSDQVYEKKVFKRWERKINWENRQIVIELPSLHLVLDMVQREKACSILPYSLTDELNRRNLVGIPLEDSPERAIYLVQNNHHGHCEAHRYLFEQLRYLF
MGSDKIHHHHHHMKLSLVISTSDAAFDALAFKGDLRKGMELAKRVGYQAVEIAVRDPSIVDWNEVKILSEELNLPICAIGTGQAYLADGLSLTHPNDEIRKKAIERVVKHTEVAGMFGALVIIGLVRGRREGRSYEETEELFIESMKRLLELTEHAKFVIEPLNRYETDFINTIDDALRILRKINSNRVGILADTFHMNIEEVNIPESLKRAGEKLYHFHVADSNRWAPGCGHFDFRSVFNTLKEIGYNRYVSVECLPLPGGMEEAAEIAFKTLKELIIKLT
MGSDKIHHHHHHMKNLLDLSYEELVTEITNLGLERYRADQILDWVFDKKVNNFDEMTNLSKKHRALLKEHFSISFLKLLDKKVSRIDGTTKFLWELEDGNTIESVMLFHPDRITACISTQVGCPVKCIFCATGMSGFVRNLTTGEIVAQILSMEKEEKKKIGNVVYMGMGEPLLNYENTIKSIRILNHKKMGNIGIRRITISTVGIPDRIIQLAEEGLDVKLALSLHAPTNFKRDQLVPLNKKYSIEEILNAVKIYQRKTGNRVTIEYVLIRGINDEISDAKKLAEILRNMKVFVNLIPVNPTVEGLRRPSRERLLTFKRILLENGIEAEIRREKGTDIEAACGQLRLKRIKSRS
MGSDKIHHHHHHMKNLLVVLLSLVSVLSFSVSLNDVLQTALASSTDYQIAQISLESATMDYEKAKLEATNKRSELSAELSYYNNLQSYRNSLKSAYQDVLGRIFNLLTADLSYEIAQLNFENAQEDYKTSQELFKKNLISENDLKDSELTLEEASNNLLSAQKDLEEAQKDYEEIFSVEVSEIELPLIDYQNLVGEDEYLDNLSSVKIAELNMKIAEYDLNNLSASASKYEQKKAELNYKKSKMNYDEALKEAKDSYKSTLDSLEIAFLNLKVLKEKIELNENILKDYQERYEKGLISKKELNTQKINLLNIKKNYLNSLRSYYISIVNLLIDAGKEVSF
MGSDKIHHHHHHMKNVIKFYEKGSIEILYGKSSHSFPLHSHECFCVGAITKGSALFTINNTKCLLEESMVFIIPPNTGISITANSQYDYITICFKNELKKQVEHILFNKFFLKIKSNDEIFNLCDIFKENNNEKQLLNSILILINSTIATNSLVMETSTNNTVLLICEYIKQTAAKNFSLDTLAESFYLSKYHLIRMFKKEMGVTPYQYYIQAKMGIIRRQIFNGKSETDLAINLNLSDSSHLCKIFKRQMGISIQAYKKNLIRK
MGSDKIHHHHHHMKPTLFVLAAGMGSRYGSLKQLDGIGPGGDTIMDYSVYDAIRAGFGRLVFVIRHSFEKEFREKILTKYEGRIPVELVFQELDRLPEGFSCPEGREKPWGTNHAVLMGRDAIREPFAVINADDFYGRNGFEVLARKLMTLEGKQGEYCMVGYRVGNTLSESGGVSRGVCQVDEKHLLTGVVERTGIERTDGTISFRDETGKICTLAEDAPVSMNMWGFTPDYFDYSEELFINFLNAHGQEPKSEFFIPFVVNDLIRSGRASVEVLDTTARWFGVTYSDDRPGVVAKLRELTEAGEYPTKLF
MGSDKIHHHHHHMKPYIVAHMMSSLDGRSLTDGWHLDYASDLYETTAATFEADGWICGRVTMQEISHGKDYPAGLASGAVPRTDHFVERNADQYAISIDPQGRVAWKSNTALKSHVIEVLTEQVADDYLAYLQSIGVSYVFGGKTGIDLDKVVQTLARELGVKKLIVEGGSHVSGAFVNAGLVDEVSVLILPLVDGRSEHPSSFEVAMEKWQAPAYLKLTSVEKTDHDAVWLRYTKA
MGSDKIHHHHHHMKQKLRLIQRRTVHYLLVVTYWISKFFPVQTKKVVFATYRSDKLVDNFRAVYDELESRELGFQYVFLLKRFPQNLIGQIKYVFHMMRATYELATARYFIIDDYYYPVYVSKLRKGTEVIQLWHACGAFKKFGYSVLDKSYSPDDDYLKMVAIHRNYSKVYVSGEACIGPFAEAFGMDSTRIHPLGVPRTDQLLNRERQVQIEHKLYDRYPEWRSKKLILLAPTFRGNGQTTAHYDQELDFQQFREQLGPDHILLLRMHPFVLNRPVVPAEFSNQIIDMTDYPDINDLMQVADILVTDYSSVIFEFALLKKPIILLVNDLNAYREERDFYFPYESFVPGPIVSSFNDVISWIKAGQFEPEQIEDFAARFFTYQDGLATKRIVNHILTGALPDAPMRPEERKTV
MGSDKIHHHHHHMKQLVELERSSLGPQEAPVRLALSPDAGSPRDPQWQGPSGGFAINGKFASQRITGVQRVGYELAVAFQHLFPHGTDLPLLVPPNARTDVVFPNAKVIGRRLKGSLWEQFSLPFATGRRTLLSLCNMGPLFVRRQVVMVHDVAIYDLPQNYSWKYRLWYRVALSLLKRNVRHIVTVSEFSKKRIVERLGIDASRISVVLNGVDHFEKISPDTAILSRLNLQKDGYVLAVGNLSVGKNLPRILTAVERLNDSHDWKFVVVGGCDLRVFNSGAKVGFDLSKNIVPAGFVSDGELRALYENAACFLFPSLYEGFGLPPLEAMSCGCPVIVSREASLPEVCGDAALYCDAYSVDDIVDKVTQMMADPAARETWRQRGREHARGFRWERSARQLLGILERELAGEVAPPVHAQSAQSDQSAPSRV
MGSDKIHHHHHHMKSNGHATRLRTTPSLGGQSHDTRARMIEAAIEVFGSVGYDGATTRQLAERAGVNQAAIPYHFGGKRELYVAAAQAIADYMRSRIEPLIDELRTASVDPVGHIDAVVMRFFQFIAGDEEPEAWTVFFVRCERDADDAFRIIYYQSVARFQAALIAEVAAATGRSPDDEDLKVRVAVVLGAISNFRTLRNVMLSSLGWDTFDAERKLTVETAVRRLALAELLGIHADAPSDVHPPLGSASGAQPSPTARP
MGSDKIHHHHHHMKSYKNYIFDFYGTLVDIRTDENKLEVWNQLTQIYNAFGCSYRPRQLKNAYHRFVEEAERFLAETVSYQYVEIDLETLFIRLLTDAPNENQSTNKPTDLETFGQVVATIFRVLSREKLEAYENTLTSLQTLAARAARLFILSNAQRIFTQAEIEQTGCADLMEKIYISSDFKMKKPEPAFLQLVLEENNLDVKETVMVGNDLTSDIAIAHELGMDSILLNTFPYSQEEIDSYRRLGWNFEVVGDIAELL
MGSDKIHHHHHHMKTKHILFGIFISSAVTSCNSIKGSGNVVTSIRPVQEFSGIISSGSFNMYLTQSAVQEVKIIADDNVLQYIETNVRDGILTVTFKDKVHIKNSTRLDIYVSGPVIEKINLEGSGNIQTTNRLHSNNLVLVLNGSGKMVAEDACETAIVQLNGSGNITLTGKAKNQTASVSGSGNVNASGFTTENTTASLSGSGSIGLYATESLHASLSGSGSIRYSGNPASVKKEVSGSGMVESR
MGSDKIHHHHHHMKTKPIDLYILSGFLGSGKSTLLKRLIEQEQARGNKIGVLMNELGEVSVDSSIVPKDTPLKEMLNGCICCTIQGELSAQLQSFIEEYELDVIFIEATGAAHPLEVVEACTHPVFAGQVRVRGVLTVVNARQWIEGKMSIKIKKLMEAQVTFADLIVVNKVDQVTDAQVEQLTTSIKDLNPKAINIPTTFSNLEPVHSERLHHAAAPSSRGSESKAHVHEHLHLRTMAVPIQHPVDRMELLSFLKGIQGQIYRVKGFIHLKESPGLFLFNYAYGDPMFERHRTDQAYAPVLVFIGDDLDHQAIEEGLQQLQQ
MGSDKIHHHHHHMKTLVICSGGLDSVSLAHKVAAEHDLIGLISFDYGQRHRKELDFAARAATRLGVPHDLIDMRQIGAHLSGSALTDDVDVPDGHYAEDTMKITVVPNRNAIMLAIAFGIAAAKQADAVATAVHGGDHFIYPDCRPGFTQAFEAMQAQALDGYASVRLYTPFVHEPKSAIVTEGERHNTPFADTWSCYKGGEVHCGRCGTCVERREAFHLAGVADPTPYADPEFWRAAVEGR
MGSDKIHHHHHHMKVELDVSELAVGMYVVEITQPKNKFQLAEQGWITKQQVIDGFKRKGIEKLLVDSSKRRPQPSEPAKVNQATMDKQAAQLTKTPGLFKQRLSQAKQLFNESKAIQRRLFDDAQAGVPLTLEPVRRVTDQSIEAIFDNPDALACVINIRHKDQYLLEHSVAVSVLMTIFACYLKIDKEIVSELAIGAFLHDVGKIMIPPSILDKPGRLTTEEFEVMKTHANHSIRIIENTPNISPLSLEVARLHHEKLNGKGYPFGVSAEAISRFGRMIAICDIFDALTANRCYKAGYPQVKAFSILRALGENNELDAELVDHFIKCMGVYPVGSLVQLESNRLAIVESHNHQDPIRPKVKPFYSLNPNHFEISANIDLAAMRDDIIVKNVRADDFDLDMDEIIEFLSHEG
MGSDKIHHHHHHMKVICITQARMGSSRLPGKVLKIIGTRPMLEYHVRRVAKSKLINHHIIATSNQENDLPIVEYCQQNNIDYYRGNETDVLGRFYETALSVHAEPDDIIIRLTGDCPLICPQLIDDAIKLQFSGESQQYTHVSLAYFPRGFDVEVFRMRSLSEAYFKALAPAQREHVTLYLYSKPDALIVPVTLHGNPSWSHFRLCVDEQDDFLLVEQLICRLGEQWLDAGPRQICELLEGNPQLVTINAHIHQRTAH
MGSDKIHHHHHHMKVILHIGAHRCATRSFQNYMTRKSDTLSQYGIAFMGPERTRNGLLHGIQPGAISVTGRDPMARARGRIALQLAGLQNAGTASVVISDASMLQPLEQCFALGALYPAAGEHLARLDHAFDGAVSDVMLNIRSPEMFWASALAVRLEHSLRMPNAATLSRIAEATRSWRDVIQDIYCAMPGARIRVFPYEVFATQPEAQLSAVTGVDCPHARGAFRLNASARLPELRAELPPRLAKLLPEDEGRWMPFSEAEAARLRESYYDDMMWLVGGADGLAELVEDPNKADATATPPAPDLVVQEDLTRGRMHDPDTGRLAGTG
MGSDKIHHHHHHMKVKVGVVGATGEVGRTMVKVLEEFNVPVTELRLFASERSVGKEIEFKGEKFKVELLTEESMKWKCDYFLFSAGASVSRKFAPIAAENGVTVIDNSSAFRMEKEIPLVVPEVNAYLLKGYTGIIANPNCSTIQMILSIYKLHEVYGIEEIFVSTYQSVSGAGHKGIEELLAQERGENVMKVFPKPIHRNVIPLIGDIQENLFSQEEMKMVNETRKILNDYSIRVYPTTVRVPVLYGHSEAIMVRLKKPYESLEKVREVIASGEDVVVTDDLITPVDVAGKNETYVCRLRATDERSILFWNVADNIRVGAATNAVRILLKHAEMNGKV

Source: the DeepSol protein solubility set
